B1: 8DC4.4 IgG (antibody, V domains shown)
VH: QVQLQESGPGLVKPSQTLSLTCTVSGGSISSDNYFWTWIRQSPGKGLEWLGHISYSGRSYTNLSLKRRLTISVDTSKNQFSLNLNSVTAADTAVYYCARERLPPGRGYDMDVWGQGTTVTVSS
VL: DIVMTQSPSSVSASVGDRVTITCRASRDISIYLNWYQQKPGKAPKLLIYAASNLETGVPSRFSGSGSGTDFTLTISSLQPEDVATYYCQQSYNTPLTFGGGTKLEIKR
B2: 4C4.4 IgG (antibody, V domains shown)
VH: QVQLQESGPGLVKPSQTLSLTCTVSGASISNSPYFWNWFRQFPGKGLEWIGYIYWSGSTNYNPSLKSRLAMSVDTSKNQFSLKLTSATAADTAVYYCARDQGGGTVVKENWFDPWGQGTLVTVSS
VL: DIVMTQSPSSLSASVGDRLTMTCQASQDIGKHLNWYQQKAGKPPKLLIYGASNLKTGVPSRFSAGVSWTDFTFTISNVQPEDVATYYCQQSYSTPPTFGQGTKVEIKR
B3: Hu6F13.4 IgG (antibody, V domains shown)
VH: QVQLVQSGAEVKKPGASVKVSCKASGYSFTSYWMHWVRQAPGQGLEWIGFINPINGGIIYNEKFRFRATLTVDTSISTAYMELSRLRSDDTAVYYCARAGYYGSSRHFDVWGQGTLLTVSS
VL: ETTLTQSPSSLSASVGDRVTITCRASQGIRNYLAWYQQKPGKAPKLLIYDASNLETGVPSRFSGSGSGTDFTFTISSLQPEDFATYYCLQTSSTPWTFGQGTKVDIKR
B4: 6F5.4 IgG (antibody, V domains shown)
VH: EVQLVPSGGNLVQPGGSLRLSCAATGPIDYHWMTWVRQAPGQGLEWVANINLDGTEKFYVDSVKGRFTVSRDNRKSSVFLQMNNLRVDDTAVYYCARLQWGERDGWLSPWGQGTLVTVSS
VL: DIVMTQSPPSLSASVGDRVRLTCRASQSIGRSLNWYQQKPGKAPKLLIYDASALHSGVPSRFSGSGSGTDFTLTISGLQPEDFATYYCQQTNDLPVTFGGGTKLEIKR
B5: Hu6F11 IgG (antibody, V domains shown)
VH: EVQLVESGGGLVKPGGSLRLSCAASGFTFSNYGMSWVRQAPGKGLEWVASISSGGSYIYYPDSVKGRFTISRDNAKNSLYLQMNSLRAEDTAVYYCARRKGYDSLYWYFDVWGQGTLVTVSS
VL: DVVMTQSPSSLSAFVGDRVTITCRASQGIRSYLAWFQQKPGKAPKLLIYAASTLQSGVPSRFSGSGSGTEFTLTVSGLQPEDFATYYCQQYNSYPLTFGGGTRLEIKR

Tests used:
[1] = target: Mosaic botulinum neurotoxin BoNT/CD (Clostridium botulinum); experiment: KinExA flow fluorimetry, solution phase, IgG
[2] = target: Mosaic botulinum neurotoxin BoNT/DC (Clostridium botulinum); experiment: KinExA flow fluorimetry, solution phase, IgG
BoNT/F3 = experiment: KinExA, IgG
BoNT/F5 = experiment: KinExA, IgG
BoNT/F7 = experiment: KinExA, IgG
BoNT/F2 = experiment: KinExA, IgG
BoNT/F4 = experiment: KinExA, IgG
BoNT/F6 = experiment: KinExA, IgG

| Binder | Kd [1] [nM] | Kd [2] [nM] | Kd (BoNT/F3) [nM] | Kd (BoNT/F5) [nM] | Kd (BoNT/F7) [nM] | Kd (BoNT/F2) [nM] | Kd (BoNT/F4) [nM] | Kd (BoNT/F6) [nM] |
| --- | --- | --- | --- | --- | --- | --- | --- | --- |
| B1 | 0.117 | 0.146 | – | – | – | – | – | – |
| B2 | 0.016 | 0.087 | – | – | – | – | – | – |
| B3 | – | – | 0.297 | 0.0172 | 0.206 | 0.216 | 0.405 | 0.172 |
| B4 | – | – | 0.00519 | 0.00588 | 0.00374 | 0.00016 | 0.0258 | 0.0004 |
| B5 | – | – | 0.00803 | 0.0218 | 0.00334 | 0.0283 | 0.0137 | 0.0037 |
